# Results taken from patent US10799597B2, “Subcutaneous administration of antibody-drug conjugates for cancer therapy” (Immunomedics, Inc., priority 2017, dated 2020).
# What was measured:
# [1] = Tolerability in Swiss-Webster mice; assay type: in vivo
# [2] = test system: triple-negative breast cancer; assay: Subcutaneous IMMU-132 in triple-negative breast cancer patients (Example 10); assay type: in vivo, human
# Method: Maintenance doses of ADC are administered i.v. or s.c. every two to three weeks or monthly after induction. Alternatively, induction may occur with two to four cycles of i.v. administration at 8-10 mg/kg (each cycle with ADC administration on Days 1 and 8 of two 21-day cycles with a one-week rest period in between), followed by s.c. administration as active dosing one or more times weekly or as maintenance therapy. Dosing may be adjusted based on interim tumor scans and/or by analysis of Trop-2 positive circulating tumor cells.
# [3] = Tolerability of multiple subcutaneous injections of IMMU-132 in nude mice; assay type: in vivo, female nude mice; conditions: s.c. 2 mg or 500 μg twice a week for four weeks
# Method: One group of two mice received 2 mg injections (HED=8 mg/kg) while a second group of two animals, 500 μg (HED=2 mg/kg). For comparison, one mouse received only saline injections. Each injection (100 μL) was administered at the same location (i.e., right rear flank) twice a week for four weeks. Mice were weighed on the day of injection and the injection site examined for any signs of toxicity (i.e, rash, ulceration, etc.). If any occur, it would be documented by photographing the area. One day after the last injection, the mice were anesthetized and the injection site photographed (FIG. 12). This was repeated one week after the final injection (FIG. 13).
substance,measurement,setting,value
IMMU-132: ADC of the humanized hRS7 anti-Trop-2 antibody conjugated by a pH-sensitive linker (CL2A) to SN-38,"chloride levels, range","[1]; 2 highest dosage groups, upper end of normal range 115 mmol/L",116 to 127 mmol/L
same,weight loss,"[1]; 2 i.p. doses over 3 days of 4, 8, and 12 mg SN-38/kg",minimal transient weight loss
same,mice with elevated chloride levels,[1]; 2×8 mg/kg group,57%
same,mice with slightly elevated glucose levels,"[1]; 2×8 mg/kg, of 7 mice",5
same,"elevated glucose levels, range","[1]; 2×8 mg/kg, upper end of normal 263 mg/dL",273 to 320 mg/dL
same,mice with elevated chloride levels,[1]; 2×12 mg/kg group,100%
same,aspartate transaminase (AST),"[1]; seven days after treatment, all 3 treatment groups, normal limit 298 U/L",rose above normal levels
same,localized reaction at the administration site,[2]; s.c.,no adverse localized reaction is observed
same,average decrease in tumor volume,"[2]; s.c. 2 to 4 mg/kg schedules, after two cycles of therapy",35%
same,skin irritation at the site of multiple injections,[3],no evidence of skin irritation
